Laboratory results taken from publication doi:10.1101/791277, “Assembly of novel, nuclear dimers of the PI3-Kinase regulatory subunits underpins the pro-proliferative activity of the Cdc42-activated tyrosine kinase, ACK” (bioRxiv, 2019).
Where no end group is shown, it is not given here. [ ]: non-standard residue; d: D form. The star is where a group is joined. 5FAM = O=C1OC2(c3ccc(O)cc3Oc3cc(O)ccc32)c2ccc(C(=O)*)cc21; pY = N[C@@H](Cc1ccc(OP(=O)(O)O)cc1)C(=O)O

Legend:
p85α cSH2 (614-720) = molecular target: T1, p85α cSH2 (614-720) (human, UniProt P27986 614-720); test: fluorescence polarisation; 5-FAM peptide at 20 nM (CD28, p85α, phospho-p85α) or 40 nM (p85β, phospho-p85β), SH2 domain titrated; 298 K; anisotropy fitted to a single site binding isotherm; conditions: both partners purified
T1 construct: PI3-Kinase regulatory subunit p85α, C-terminal SH2 domain, residues 614-720; also called cSH2 domain of p85α; source: E. coli, purified (glutathione-agarose, HRV 3C cleavage, S75 size exclusion)
T1 sequence (P27986 614-720): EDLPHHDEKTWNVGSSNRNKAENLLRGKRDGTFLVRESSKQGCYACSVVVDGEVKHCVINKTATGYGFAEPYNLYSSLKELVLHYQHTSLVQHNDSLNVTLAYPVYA

p85β cSH2 (603-712) = molecular target: T2, p85β cSH2 (603-712) (mouse, UniProt O08908 603-712); test: as above; conditions: both partners purified
T2 construct: PI3-Kinase regulatory subunit p85β, C-terminal SH2 domain, residues 603-712; also called cSH2 domain of p85β; source: E. coli, purified (glutathione-agarose, HRV 3C cleavage, S75 size exclusion)
T2 sequence (looked up): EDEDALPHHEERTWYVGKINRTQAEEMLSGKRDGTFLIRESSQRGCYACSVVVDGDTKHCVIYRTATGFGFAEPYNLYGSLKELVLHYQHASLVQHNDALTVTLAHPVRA

binding result (p85α cSH2 (614-720)): binds | binding result (p85β cSH2 (603-712)): binds
B1: CD28 peptide, [5-FAM]-SD-[pY]-MNMTP (peptide)
peptide: 5FAM-SD[pY]MNMTP
notes: known SH2 target phosphopeptide from CD28; also called control peptide from CD28; source: synthetic peptide, bought: Biomatik
